Results: US20170362317A1

Target: IL6 receptor on human multiple myeloma U266 cells (human) (UniProt P08887)
Assay: cell-based or functional assay

Chain of IL6 receptor on human multiple myeloma U266 cells (human) (P08887 20-468): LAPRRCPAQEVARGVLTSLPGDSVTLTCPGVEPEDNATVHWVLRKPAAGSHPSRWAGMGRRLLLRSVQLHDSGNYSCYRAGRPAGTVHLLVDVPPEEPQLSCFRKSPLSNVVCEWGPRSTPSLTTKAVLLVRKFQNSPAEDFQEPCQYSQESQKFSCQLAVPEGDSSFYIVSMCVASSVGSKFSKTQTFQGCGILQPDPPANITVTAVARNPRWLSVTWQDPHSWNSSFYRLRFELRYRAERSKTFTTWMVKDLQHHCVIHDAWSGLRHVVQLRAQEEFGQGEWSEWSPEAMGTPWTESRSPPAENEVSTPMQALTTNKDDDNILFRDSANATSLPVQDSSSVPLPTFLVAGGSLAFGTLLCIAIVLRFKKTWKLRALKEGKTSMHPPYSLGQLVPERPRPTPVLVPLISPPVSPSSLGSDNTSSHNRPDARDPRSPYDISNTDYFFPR

inhibition percentage of control of STAT3 phosphorylation in U266 cells, antibody at 0.05 µg/ml: 0%
inhibition percentage of control of STAT3 phosphorylation in U266 cells, antibody at 0.5 µg/ml: 17%
Substance: Actemra, an anti-IL6 receptor humanized antibody
